Here are results for 28 variants from IntAct's records for PubMed 27754869.

The chains are these.
B1: Natural cytotoxicity triggering receptor 3 (Homo sapiens), O14931 (parent)
chain: MAWMLLLILIMVHPGSCALWVSQPPEIRTLEGSSAFLPCSFNASQGRLAIGSVTWFRDEVVPGKEVRNGTPEFRGRLAPLASSRFLHDHQAELHIRDVRGHDASIYVCRVEVLGLGVGTGNGTRLVVEKEHPQLGAGTVLLLRAGFYAVSFLSVAVGSTVYYQGKCLTWKGPRRQLPAVVPAPLPPPCGSSAHLLPPVPGG
B2: Natural cytotoxicity triggering receptor 3 (Homo sapiens), O14931 (parent)
chain: B1 chain
partner: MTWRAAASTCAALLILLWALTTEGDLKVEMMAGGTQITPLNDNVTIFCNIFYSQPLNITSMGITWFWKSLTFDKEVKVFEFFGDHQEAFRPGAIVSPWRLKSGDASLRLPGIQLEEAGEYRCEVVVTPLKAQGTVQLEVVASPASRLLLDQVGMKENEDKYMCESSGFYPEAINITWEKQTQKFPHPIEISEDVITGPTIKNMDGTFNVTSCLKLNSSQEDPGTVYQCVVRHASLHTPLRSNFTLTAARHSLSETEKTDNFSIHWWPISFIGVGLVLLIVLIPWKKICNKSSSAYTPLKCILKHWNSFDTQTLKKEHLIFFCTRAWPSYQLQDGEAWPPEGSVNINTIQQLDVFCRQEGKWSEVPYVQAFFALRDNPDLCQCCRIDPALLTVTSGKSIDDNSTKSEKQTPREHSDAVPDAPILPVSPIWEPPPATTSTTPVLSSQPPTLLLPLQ

In the first assay the parent is B1. To be noted: with BAG6, P46379-2.
Chain of BAG6, P46379-2 (P46379 other isoform, or with tags, fused parts or gaps): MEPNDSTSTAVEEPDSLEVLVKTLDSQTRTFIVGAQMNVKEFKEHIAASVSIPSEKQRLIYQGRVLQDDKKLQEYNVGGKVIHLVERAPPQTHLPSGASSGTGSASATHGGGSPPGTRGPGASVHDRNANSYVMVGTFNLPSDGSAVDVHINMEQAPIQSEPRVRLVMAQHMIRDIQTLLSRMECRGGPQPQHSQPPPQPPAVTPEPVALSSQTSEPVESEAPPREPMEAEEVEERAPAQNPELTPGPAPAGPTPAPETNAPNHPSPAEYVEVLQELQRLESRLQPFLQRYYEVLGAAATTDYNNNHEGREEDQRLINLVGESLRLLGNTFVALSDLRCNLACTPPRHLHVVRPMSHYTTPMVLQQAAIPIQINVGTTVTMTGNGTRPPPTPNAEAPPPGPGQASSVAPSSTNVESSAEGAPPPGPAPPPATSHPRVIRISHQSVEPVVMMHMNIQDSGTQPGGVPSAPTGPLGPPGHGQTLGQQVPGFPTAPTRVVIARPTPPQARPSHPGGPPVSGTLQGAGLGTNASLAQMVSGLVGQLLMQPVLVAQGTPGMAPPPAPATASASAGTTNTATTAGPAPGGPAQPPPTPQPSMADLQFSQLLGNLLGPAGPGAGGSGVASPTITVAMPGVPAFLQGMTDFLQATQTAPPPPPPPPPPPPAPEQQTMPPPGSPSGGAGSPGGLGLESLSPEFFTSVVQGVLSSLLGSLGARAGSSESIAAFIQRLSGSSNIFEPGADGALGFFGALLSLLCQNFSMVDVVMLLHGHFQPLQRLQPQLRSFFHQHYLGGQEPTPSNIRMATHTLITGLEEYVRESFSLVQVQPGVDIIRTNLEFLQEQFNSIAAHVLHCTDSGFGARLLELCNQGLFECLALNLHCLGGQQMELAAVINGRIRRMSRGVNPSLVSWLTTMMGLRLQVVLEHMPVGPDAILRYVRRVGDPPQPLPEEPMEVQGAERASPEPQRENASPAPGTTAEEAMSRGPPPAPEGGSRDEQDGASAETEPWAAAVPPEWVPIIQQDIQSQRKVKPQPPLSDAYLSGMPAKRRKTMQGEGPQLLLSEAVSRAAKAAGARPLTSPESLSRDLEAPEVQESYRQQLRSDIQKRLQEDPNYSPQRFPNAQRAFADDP
Take P132A: the “effect of a mutation on the interaction” value is listed as “with no effect”. For the variant G135A, the “effect of a mutation on the interaction” value was “increasing interaction strength”. Still for that read-out and setting: the same measure for Q133A: “with no effect”; for L141A: “decreasing interaction strength”.

On to L140A, for which the “effect of a mutation on the interaction” value is recorded as “with no effect”. Turning to E130A, the “effect of a mutation on the interaction” value is “increasing interaction strength”.

With G137A, the “effect of a mutation on the interaction” value was “with no effect”. Same read-out and setting: the same measure for H131A: “with no effect”; for V139A: “with no effect”; for R143A: “decreasing interaction strength”.

For K129A, the “effect of a mutation on the interaction” value is “decreasing interaction strength”. Take L134A: the “effect of a mutation on the interaction” value was “with no effect”. As to L142A, the “effect of a mutation on the interaction” value is on record as “decreasing interaction strength”.

Regarding T138A, the “effect of a mutation on the interaction” value is given as “increasing interaction strength”.

Variants of B2 are the subject of another assay. To be noted: with nr3l1_human NCR3LG1, Q68D85.
Take H131A: the “effect of a mutation on the interaction” value is “decreasing interaction strength”. Still for that read-out and setting: the same measure for R143A: “decreasing interaction strength”. On to L140A, for which the “effect of a mutation on the interaction” value is reported as “increasing interaction strength”. Consider L142A, for which the “effect of a mutation on the interaction” value was “increasing interaction strength”.

On to P132A, for which the “effect of a mutation on the interaction” value is “with no effect”. Same read-out and setting: the same measure for T138A: “decreasing interaction strength”; for L134A: “decreasing interaction strength”. The same measure, in the same setting: the same measure for K129A: “decreasing interaction strength”. As to E130A, the “effect of a mutation on the interaction” value was “decreasing interaction strength”. Still for that read-out and setting: the same measure for G135A: “decreasing interaction strength”. Still for that read-out and setting: the same measure for L141A: “with no effect”. As for G137A, the “effect of a mutation on the interaction” value is “with no effect”. Still for that read-out and setting: the same measure for V139A: “increasing interaction strength”. Still for that read-out and setting: the same measure for Q133A: “decreasing interaction strength”.
